Columns and labels:
PdxB = PdxB (Escherichia coli, UniProt P05459); assay: coupled assay with SerC and PdxA, NADH formation at […] nm; type: biochemical
purified protein [1] = substrate: CC(=O)C(=O)O; assay: purified protein; type: biochemical, Escherichia coli; conditions: 4PE 29 μM, TND buffer pH 8.0, room temperature
purified protein [2] = substrate: O=C(O)CC(=O)C(=O)O; assay: purified protein; type: biochemical, Escherichia coli; conditions: 4PE 29 μM, TND buffer pH 8.0, room temperature
purified protein [3] = substrate: O=C(O)CCC(=O)C(=O)O; assay: purified protein; type: biochemical, Escherichia coli; conditions: 4PE 29 μM, TND buffer pH 8.0, room temperature
purified protein [4] = substrate: O=C(O)[C@H](O)[C@H](O)COP(=O)(O)O; assay: purified protein; type: biochemical, Escherichia coli; conditions: αKG 2 mM, TND buffer pH 8.0, room temperature
SEC = biological target: the molecule itself; assay: SEC

O=C(O)CC[C@H](O)C(=O)O [L-2-HGA]
IC50 (PdxB): > 2000 µM

B1: PdxB (4-phospho-D-erythronate dehydrogenase) from E. coli (enzyme, UniProt P05459 1-378, looked up)
chain: MKILVDENMPYARDLFSRLGEVTAVPGRPIPVAQLADADALMVRSVTKVNESLLAGKPIKFVGTATAGTDHVDEAWLKQAGIGFSAAPGCNAIAVVEYVFSSLLMLAERDGFSLYDRTVGIVGVGNVGRRLQARLEALGIKTLLCDPPRADRGDEGDFRSLDELVQRADILTFHTPLFKDGPYKTLHLADEKLIRSLKPGAILINACRGAVVDNTALLTCLNEGQKLSVVLDVWEGEPELNVELLKKVDIGTSHIAGYTLEGKARGTTQVFEAYSKFIGHEQHVALDTLLPAPEFGRITLHGPLDQPTLKRLVHLVYDVRRDDAPLRKVAGIPGEFDKLRKNYLERREWSSLYVICDDASAASLLCKLGFNAVHHPAR
Km (purified protein [1]): 128 ± 20 µM | kcat (purified protein [1]): 1.3 ± 0.14 s⁻¹ | kcat/Km (purified protein [1]): 9900 ± 160 M⁻¹ s⁻¹ | Km (purified protein [2]): 86 ± 19 µM | kcat (purified protein [2]): 1.1 ± 0.31 s⁻¹ | kcat/Km (purified protein [2]): 13000 ± 2100 M⁻¹ s⁻¹ | Km (purified protein [3]): 93 ± 19 µM | kcat (purified protein [3]): 1 ± 0.24 s⁻¹ | kcat/Km (purified protein [3]): 11000 ± 2400 M⁻¹ s⁻¹ | Km (purified protein [4]): 2.9 ± 1.3 µM | stoichiometry N (SEC): 2
